Reference: PMC9482650, “Quantitative fragmentomics allow affinity mapping of interactomes” (Nature Communications, 2022)

T1: NHERF3_4, Q5T2W1
T1 sequence (Q5T2W1 373-468, limits assumed, looked up): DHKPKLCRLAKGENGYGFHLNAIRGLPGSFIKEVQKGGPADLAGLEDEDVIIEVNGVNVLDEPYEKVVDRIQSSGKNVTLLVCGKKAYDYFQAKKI

T2: APBA2_1, Q99767
T2 sequence (Q99767 563-664, limits assumed, looked up): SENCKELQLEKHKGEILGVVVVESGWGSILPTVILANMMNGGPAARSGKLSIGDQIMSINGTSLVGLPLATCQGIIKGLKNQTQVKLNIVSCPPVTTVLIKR

T3: PARD3B_1, Q8TEW8
T3 sequence (Q8TEW8 196-299, limits assumed, looked up): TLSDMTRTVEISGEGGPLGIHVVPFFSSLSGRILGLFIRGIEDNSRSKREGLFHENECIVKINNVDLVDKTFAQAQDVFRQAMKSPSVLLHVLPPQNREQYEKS

T4: SNTG2, Q9NY99
T4 sequence (Q9NY99 68-166, limits assumed, looked up): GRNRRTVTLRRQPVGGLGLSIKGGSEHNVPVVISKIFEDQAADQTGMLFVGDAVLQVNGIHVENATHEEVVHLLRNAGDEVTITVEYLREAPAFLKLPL

T5: DLG3_1, Q92796
T5 sequence (Q92796 125-227, limits assumed, looked up): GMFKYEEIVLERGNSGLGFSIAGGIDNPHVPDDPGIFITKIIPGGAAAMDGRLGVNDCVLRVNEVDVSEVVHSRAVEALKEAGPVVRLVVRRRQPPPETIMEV

T6: MPDZ_12, O75970
T6 sequence (O75970 1857-1958, limits assumed, looked up): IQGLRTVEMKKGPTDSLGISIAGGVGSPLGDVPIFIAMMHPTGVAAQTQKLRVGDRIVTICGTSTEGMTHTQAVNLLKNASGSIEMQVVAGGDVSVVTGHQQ

T7: SHANK1, Q9Y566
T7 sequence (Q9Y566 658-767, limits assumed, looked up): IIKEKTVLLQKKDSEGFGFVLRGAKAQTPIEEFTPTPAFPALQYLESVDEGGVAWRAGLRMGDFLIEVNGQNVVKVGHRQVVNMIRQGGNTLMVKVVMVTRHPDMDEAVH

T8: RHPN1, Q8TCX5
T8 sequence (Q8TCX5 508-602, limits assumed, looked up): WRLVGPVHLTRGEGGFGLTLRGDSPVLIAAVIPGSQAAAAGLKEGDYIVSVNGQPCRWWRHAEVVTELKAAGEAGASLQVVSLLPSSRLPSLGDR

T9: DVL3, Q92997
T9 sequence (Q92997 244-331, limits assumed, looked up): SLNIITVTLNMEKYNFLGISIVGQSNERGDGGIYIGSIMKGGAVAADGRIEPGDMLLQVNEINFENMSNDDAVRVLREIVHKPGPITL

T10: DLG3_2, Q92796
T10 sequence (Q92796 221-321, limits assumed, looked up): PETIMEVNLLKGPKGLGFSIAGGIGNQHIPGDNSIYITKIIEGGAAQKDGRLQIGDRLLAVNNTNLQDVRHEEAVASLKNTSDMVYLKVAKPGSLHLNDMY

B1: FZD8, Q9H461 (peptide)
chain: YPKQMPLSQV
B2: SMCHD1, A6NHR9 (peptide)
chain: QNRIITKTDV

Each binder was assayed against T1, NHERF3_4, Q5T2W1 (assay: holdup assay). Settings: plain residues with an end cap or a label only (N-terminal biotin on a linker: ado-ado).
Parameters: key: below the threshold = too weak to quantify, mostly under pKd 3.1 to 4

Row | pKd | Binder
1 | below the threshold | B1
2 | below the threshold | B2

What follows are binders tested against Inadl_8, Q8NI35 (assay: holdup assay). Settings: plain residues with an end cap or a label only (N-terminal biotin on a linker: ado-ado).
Inadl_8, Q8NI35, sequence (Q8NI35 1425-1530): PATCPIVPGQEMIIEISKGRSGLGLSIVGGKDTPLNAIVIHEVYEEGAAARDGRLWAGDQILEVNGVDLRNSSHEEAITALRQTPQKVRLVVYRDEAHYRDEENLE
Parameters: key: below the threshold = too weak to quantify, mostly under pKd 3.1 to 4

Row | pKd | Binder
3 | 4.61 | B1
4 | 4.77 | B2

Each binder was assayed against LIMK2, P53671 (assay: holdup assay). Settings: plain residues with an end cap or a label only (N-terminal biotin on a linker: ado-ado).
LIMK2, P53671, sequence (P53671 143-248): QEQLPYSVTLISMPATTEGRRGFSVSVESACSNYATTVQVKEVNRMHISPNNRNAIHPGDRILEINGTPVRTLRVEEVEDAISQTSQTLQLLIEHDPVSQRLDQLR
Parameters: key: below the threshold = too weak to quantify, mostly under pKd 3.1 to 4

Row | pKd | Binder
5 | below the threshold | B1
6 | below the threshold | B2

These binders were tested against Inadl_6, Q8NI35 (assay: holdup assay). Settings: plain residues with an end cap or a label only (N-terminal biotin on a linker: ado-ado).
Inadl_6, Q8NI35, sequence (Q8NI35 1058-1167): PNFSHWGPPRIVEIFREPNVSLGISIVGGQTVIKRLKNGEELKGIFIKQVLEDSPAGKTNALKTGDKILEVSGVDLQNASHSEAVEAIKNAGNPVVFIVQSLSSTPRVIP
Parameters: key: below the threshold = too weak to quantify, mostly under pKd 3.1 to 4

Row | pKd | Binder
7 | below the threshold | B1
8 | below the threshold | B2

What follows are binders tested against MAST1, Q9Y2H9 (assay: holdup assay). Settings: plain residues with an end cap or a label only (N-terminal biotin on a linker: ado-ado).
MAST1, Q9Y2H9, sequence (Q9Y2H9 962-1065): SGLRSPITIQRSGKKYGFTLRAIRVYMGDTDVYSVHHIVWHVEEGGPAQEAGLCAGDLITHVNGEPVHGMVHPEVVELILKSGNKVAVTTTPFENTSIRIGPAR
Parameters: key: below the threshold = too weak to quantify, mostly under pKd 3.1 to 4

Row | pKd | Binder
9 | 4.09 | B1
10 | below the threshold | B2

These binders were tested against GRID2IP_2, A4D2P6 (assay: holdup assay). Settings: plain residues with an end cap or a label only (N-terminal biotin on a linker: ado-ado).
GRID2IP_2, A4D2P6, sequence (A4D2P6 272-370): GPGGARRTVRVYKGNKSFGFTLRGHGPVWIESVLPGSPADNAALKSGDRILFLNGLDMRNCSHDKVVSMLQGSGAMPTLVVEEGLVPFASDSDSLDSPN
Parameters: key: below the threshold = too weak to quantify, mostly under pKd 3.1 to 4

Row | pKd | Binder
11 | 4.28 | B1
12 | 3.95 | B2

Each binder was assayed against PARD3_3, Q8TEW0 (assay: holdup assay). Settings: plain residues with an end cap or a label only (N-terminal biotin on a linker: ado-ado).
PARD3_3, Q8TEW0, sequence (Q8TEW0 582-685): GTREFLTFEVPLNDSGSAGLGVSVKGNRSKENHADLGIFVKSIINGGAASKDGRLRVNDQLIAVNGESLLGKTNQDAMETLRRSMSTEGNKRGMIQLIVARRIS
Parameters: key: below the threshold = too weak to quantify, mostly under pKd 3.1 to 4

Row | pKd | Binder
13 | below the threshold | B1
14 | below the threshold | B2

Each binder was assayed against T2, APBA2_1, Q99767 (assay: holdup assay). Settings: plain residues with an end cap or a label only (N-terminal biotin on a linker: ado-ado).
Parameters: key: below the threshold = too weak to quantify, mostly under pKd 3.1 to 4

Row | pKd | Binder
15 | below the threshold | B1
16 | below the threshold | B2

The binders below were run against LNX1_2, Q8TBB1 (assay: holdup assay). Settings: plain residues with an end cap or a label only (N-terminal biotin on a linker: ado-ado).
LNX1_2, Q8TBB1, sequence (Q8TBB1 371-470): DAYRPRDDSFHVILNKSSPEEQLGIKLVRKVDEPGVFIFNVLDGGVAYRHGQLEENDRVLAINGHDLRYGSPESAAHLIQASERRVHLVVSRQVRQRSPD
Parameters: key: below the threshold = too weak to quantify, mostly under pKd 3.1 to 4

Row | pKd | Binder
17 | below the threshold | B1
18 | below the threshold | B2

These binders were tested against T3, PARD3B_1, Q8TEW8 (assay: holdup assay). Settings: plain residues with an end cap or a label only (N-terminal biotin on a linker: ado-ado).
Parameters: key: below the threshold = too weak to quantify, mostly under pKd 3.1 to 4

Row | pKd | Binder
19 | below the threshold | B1
20 | below the threshold | B2

The binders below were run against GOPC, Q9HD26 (assay: holdup assay). Settings: plain residues with an end cap or a label only (N-terminal biotin on a linker: ado-ado).
Parameters: key: below the threshold = too weak to quantify, mostly under pKd 3.1 to 4

Row | pKd | Binder
21 | 4.52 | B1
22 | 3.87 | B2

The binders below were run against SCRIB_1, Q14160 (assay: holdup assay). Settings: plain residues with an end cap or a label only (N-terminal biotin on a linker: ado-ado).
SCRIB_1, Q14160, sequence (Q14160 718-814): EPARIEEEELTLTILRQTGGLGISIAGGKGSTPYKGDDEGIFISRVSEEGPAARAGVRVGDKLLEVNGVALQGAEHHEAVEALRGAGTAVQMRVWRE
Parameters: key: below the threshold = too weak to quantify, mostly under pKd 3.1 to 4

Row | pKd | Binder
23 | below the threshold | B1
24 | 3.88 | B2

Each binder was assayed against LNX1_1, Q8TBB1 (assay: holdup assay). Settings: plain residues with an end cap or a label only (N-terminal biotin on a linker: ado-ado).
LNX1_1, Q8TBB1, sequence (Q8TBB1 261-371): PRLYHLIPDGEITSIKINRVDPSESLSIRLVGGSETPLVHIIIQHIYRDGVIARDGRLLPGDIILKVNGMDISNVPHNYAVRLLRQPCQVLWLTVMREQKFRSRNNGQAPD
Parameters: key: below the threshold = too weak to quantify, mostly under pKd 3.1 to 4

Row | pKd | Binder
25 | 3.74 | B1
26 | 3.7 | B2

These binders were tested against IL16_3, Q14005 (assay: holdup assay). Settings: plain residues with an end cap or a label only (N-terminal biotin on a linker: ado-ado).
IL16_3, Q14005, sequence (Q14005 1107-1207): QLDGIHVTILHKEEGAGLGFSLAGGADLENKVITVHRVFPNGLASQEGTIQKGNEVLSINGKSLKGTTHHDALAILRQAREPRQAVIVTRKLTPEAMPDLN
Parameters: key: below the threshold = too weak to quantify, mostly under pKd 3.1 to 4

Row | pKd | Binder
27 | below the threshold | B1
28 | below the threshold | B2

The binders below were run against T4, SNTG2, Q9NY99 (assay: holdup assay). Settings: plain residues with an end cap or a label only (N-terminal biotin on a linker: ado-ado).
Parameters: key: below the threshold = too weak to quantify, mostly under pKd 3.1 to 4

Row | pKd | Binder
29 | below the threshold | B1
30 | below the threshold | B2

The binders below were run against T5, DLG3_1, Q92796 (assay: holdup assay). Settings: plain residues with an end cap or a label only (N-terminal biotin on a linker: ado-ado).
Parameters: key: below the threshold = too weak to quantify, mostly under pKd 3.1 to 4

Row | pKd | Binder
31 | below the threshold | B1
32 | below the threshold | B2

Each binder was assayed against SCRIB_2, Q14160 (assay: holdup assay). Settings: plain residues with an end cap or a label only (N-terminal biotin on a linker: ado-ado).
SCRIB_2, Q14160, sequence (Q14160 857-960): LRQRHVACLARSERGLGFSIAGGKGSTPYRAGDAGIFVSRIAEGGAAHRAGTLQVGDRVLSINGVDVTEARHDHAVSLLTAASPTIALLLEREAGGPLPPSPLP
Parameters: key: below the threshold = too weak to quantify, mostly under pKd 3.1 to 4

Row | pKd | Binder
33 | below the threshold | B1
34 | below the threshold | B2

Each binder was assayed against MAST2, Q6P0Q8 (assay: holdup assay). Settings: plain residues with an end cap or a label only (N-terminal biotin on a linker: ado-ado).
MAST2, Q6P0Q8, sequence (Q6P0Q8 1099-1202): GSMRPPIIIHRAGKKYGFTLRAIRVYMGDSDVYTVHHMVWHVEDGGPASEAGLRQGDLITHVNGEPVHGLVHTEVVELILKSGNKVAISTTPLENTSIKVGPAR
Parameters: key: below the threshold = too weak to quantify, mostly under pKd 3.1 to 4

Row | pKd | Binder
35 | 4.29 | B1
36 | 5.05 | B2

The binders below were run against T6, MPDZ_12, O75970 (assay: holdup assay). Settings: plain residues with an end cap or a label only (N-terminal biotin on a linker: ado-ado).
Parameters: key: below the threshold = too weak to quantify, mostly under pKd 3.1 to 4

Row | pKd | Binder
37 | below the threshold | B1
38 | below the threshold | B2

What follows are binders tested against T7, SHANK1, Q9Y566 (assay: holdup assay). Settings: plain residues with an end cap or a label only (N-terminal biotin on a linker: ado-ado).
Parameters: key: below the threshold = too weak to quantify, mostly under pKd 3.1 to 4

Row | pKd | Binder
39 | below the threshold | B1
40 | below the threshold | B2

What follows are binders tested against T8, RHPN1, Q8TCX5 (assay: holdup assay). Settings: plain residues with an end cap or a label only (N-terminal biotin on a linker: ado-ado).
Parameters: key: below the threshold = too weak to quantify, mostly under pKd 3.1 to 4

Row | pKd | Binder
41 | 4.34 | B1
42 | below the threshold | B2

The binders below were run against TJP1_2, Q07157 (assay: holdup assay). Settings: plain residues with an end cap or a label only (N-terminal biotin on a linker: ado-ado).
TJP1_2, Q07157, sequence (Q07157 181-274): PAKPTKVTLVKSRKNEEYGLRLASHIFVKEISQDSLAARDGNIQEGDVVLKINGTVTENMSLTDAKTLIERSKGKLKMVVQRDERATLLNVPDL
Parameters: key: below the threshold = too weak to quantify, mostly under pKd 3.1 to 4

Row | pKd | Binder
43 | below the threshold | B1
44 | below the threshold | B2

These binders were tested against T9, DVL3, Q92997 (assay: holdup assay). Settings: plain residues with an end cap or a label only (N-terminal biotin on a linker: ado-ado).
Parameters: key: below the threshold = too weak to quantify, mostly under pKd 3.1 to 4

Row | pKd | Binder
45 | below the threshold | B1
46 | below the threshold | B2

Each binder was assayed against GORASP2, Q9H8Y8 (assay: holdup assay). Settings: plain residues with an end cap or a label only (N-terminal biotin on a linker: ado-ado).
Parameters: key: below the threshold = too weak to quantify, mostly under pKd 3.1 to 4

Row | pKd | Binder
47 | 3.56 | B1
48 | below the threshold | B2

Each binder was assayed against T10, DLG3_2, Q92796 (assay: holdup assay). Settings: plain residues with an end cap or a label only (N-terminal biotin on a linker: ado-ado).
Parameters: key: below the threshold = too weak to quantify, mostly under pKd 3.1 to 4

Row | pKd | Binder
49 | below the threshold | B1
50 | 4.08 | B2

What follows are binders tested against GRIP2_4, Q9C0E4 (assay: holdup assay). Settings: plain residues with an end cap or a label only (N-terminal biotin on a linker: ado-ado).
GRIP2_4, Q9C0E4, sequence (Q9C0E4 446-548): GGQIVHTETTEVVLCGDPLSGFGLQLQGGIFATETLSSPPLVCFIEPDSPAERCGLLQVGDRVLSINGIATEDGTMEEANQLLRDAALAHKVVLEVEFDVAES
Parameters: key: below the threshold = too weak to quantify, mostly under pKd 3.1 to 4

Row | pKd | Binder
51 | below the threshold | B1
52 | below the threshold | B2

Each binder was assayed against FRMPD2_1, Q68DX3 (assay: holdup assay). Settings: plain residues with an end cap or a label only (N-terminal biotin on a linker: ado-ado).
FRMPD2_1, Q68DX3, sequence (Q68DX3 770-861): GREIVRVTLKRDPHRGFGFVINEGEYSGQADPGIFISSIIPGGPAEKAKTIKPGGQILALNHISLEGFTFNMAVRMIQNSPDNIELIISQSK
Parameters: key: below the threshold = too weak to quantify, mostly under pKd 3.1 to 4

Row | pKd | Binder
53 | below the threshold | B1
54 | below the threshold | B2
